We go through 1 molecule from US20250092426, “CAS ENDONUCLEASES AND RELATED METHODS” (Flagship Pioneering Innovations VII, LLC, published 2025).

The data set has as its target T1, CasEnd-5 (synthetic construct).
T1 chain: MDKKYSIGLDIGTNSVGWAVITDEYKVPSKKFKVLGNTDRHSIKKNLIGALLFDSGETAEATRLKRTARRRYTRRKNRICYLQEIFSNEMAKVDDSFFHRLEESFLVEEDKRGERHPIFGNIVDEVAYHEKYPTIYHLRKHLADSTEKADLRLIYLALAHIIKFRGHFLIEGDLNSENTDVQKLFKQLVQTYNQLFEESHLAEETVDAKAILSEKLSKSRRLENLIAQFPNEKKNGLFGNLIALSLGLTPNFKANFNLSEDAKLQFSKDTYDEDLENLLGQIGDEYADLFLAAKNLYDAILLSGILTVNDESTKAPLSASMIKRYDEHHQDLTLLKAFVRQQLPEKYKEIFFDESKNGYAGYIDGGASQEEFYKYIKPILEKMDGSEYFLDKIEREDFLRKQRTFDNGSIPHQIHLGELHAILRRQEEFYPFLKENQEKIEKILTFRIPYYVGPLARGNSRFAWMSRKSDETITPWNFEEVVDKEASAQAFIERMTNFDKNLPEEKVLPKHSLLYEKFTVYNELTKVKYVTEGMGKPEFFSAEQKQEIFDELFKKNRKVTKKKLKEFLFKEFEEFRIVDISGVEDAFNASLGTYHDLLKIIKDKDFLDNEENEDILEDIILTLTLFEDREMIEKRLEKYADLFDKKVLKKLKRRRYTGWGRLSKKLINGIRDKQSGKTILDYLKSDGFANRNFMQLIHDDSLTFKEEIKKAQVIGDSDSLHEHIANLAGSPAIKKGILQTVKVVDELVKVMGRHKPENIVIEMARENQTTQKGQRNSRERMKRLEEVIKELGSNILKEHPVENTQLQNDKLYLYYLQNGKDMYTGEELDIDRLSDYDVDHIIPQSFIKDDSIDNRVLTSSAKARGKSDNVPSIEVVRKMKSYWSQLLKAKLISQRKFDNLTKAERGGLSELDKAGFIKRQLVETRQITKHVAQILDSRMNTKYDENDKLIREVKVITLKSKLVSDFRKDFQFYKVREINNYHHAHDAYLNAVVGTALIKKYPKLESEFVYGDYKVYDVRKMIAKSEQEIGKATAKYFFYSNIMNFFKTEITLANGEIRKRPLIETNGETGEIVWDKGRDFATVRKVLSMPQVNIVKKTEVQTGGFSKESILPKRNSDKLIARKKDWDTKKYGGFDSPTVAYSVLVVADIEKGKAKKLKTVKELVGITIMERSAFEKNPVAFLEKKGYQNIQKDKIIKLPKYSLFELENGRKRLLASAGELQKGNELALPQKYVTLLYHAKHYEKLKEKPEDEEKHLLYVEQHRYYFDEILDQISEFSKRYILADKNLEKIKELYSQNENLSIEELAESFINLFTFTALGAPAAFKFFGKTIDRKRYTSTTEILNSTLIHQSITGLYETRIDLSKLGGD
Nature of the data set: cell_activity; +++; HEK293T; PAM not stated. Put shortly: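 Editing activity was scored as the fraction of GFP+ cells on day 4 by flow cytometry. BFP-expressing HEK293T cells (250,000) received by nucleofection 200 ng plasmid for the RT-Cas fusion protein and 200 ng template RNA plasmid designed to convert BFP to GFP.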

B1: BFP-to-GFP template RNA ; BFP reporter protospacer (ssRNA ; dsDNA)
RNA: GCCGAAGCACUGCACGCCGUGUUUUAGAGCUAGAAAUAGCAAGUUAAAAUAAGGCUAGUCCGUUAUCAACUUGAAAAAGUGGCACCGAGUCGGUGCACCCUGACGUACGGCGUGCAGUGCUU
DNA 1: GCCGAAGCACTGCACGCCGT
DNA 2: ACGGCGTGCAGTGCTTCGGC
With B1, the activity was ≥ 100 % of reference.
